Test results taken from US20240182536A1 (MURAL ONCOLOGY, published 2024).
Where two headings read alike, the source gives them in different places.

What was measured:
[1] = target: T1, human IL-18 binding protein (human, UniProt O95998 31-194); assay: cell-based or functional assay
T1 sequence (looked up): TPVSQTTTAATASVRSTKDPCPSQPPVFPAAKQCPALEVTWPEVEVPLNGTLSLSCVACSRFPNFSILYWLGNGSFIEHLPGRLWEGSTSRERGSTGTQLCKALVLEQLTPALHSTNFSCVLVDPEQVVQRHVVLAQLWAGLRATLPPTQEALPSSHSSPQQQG

[2] = target: T2, IL-18 receptors on HEK-Blue IL-18 reporter cells (UniProt Q13478 19-541; O95256 20-599, limits assumed); assay: cell-based or functional assay
T2 sequence (looked up) 1: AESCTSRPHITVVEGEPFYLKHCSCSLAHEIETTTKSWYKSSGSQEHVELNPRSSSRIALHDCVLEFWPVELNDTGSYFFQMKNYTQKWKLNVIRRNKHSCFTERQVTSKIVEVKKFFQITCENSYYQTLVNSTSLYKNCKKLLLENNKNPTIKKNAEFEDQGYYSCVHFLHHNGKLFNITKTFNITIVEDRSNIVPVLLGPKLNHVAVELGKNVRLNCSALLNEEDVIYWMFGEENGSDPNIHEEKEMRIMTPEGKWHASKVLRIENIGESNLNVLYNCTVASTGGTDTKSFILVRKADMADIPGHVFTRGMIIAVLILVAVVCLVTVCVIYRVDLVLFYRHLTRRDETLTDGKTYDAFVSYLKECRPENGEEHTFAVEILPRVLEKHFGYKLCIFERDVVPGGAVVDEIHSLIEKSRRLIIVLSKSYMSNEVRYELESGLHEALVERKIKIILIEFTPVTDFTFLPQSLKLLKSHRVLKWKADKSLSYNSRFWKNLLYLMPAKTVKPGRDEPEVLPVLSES
T2 sequence (looked up) 2: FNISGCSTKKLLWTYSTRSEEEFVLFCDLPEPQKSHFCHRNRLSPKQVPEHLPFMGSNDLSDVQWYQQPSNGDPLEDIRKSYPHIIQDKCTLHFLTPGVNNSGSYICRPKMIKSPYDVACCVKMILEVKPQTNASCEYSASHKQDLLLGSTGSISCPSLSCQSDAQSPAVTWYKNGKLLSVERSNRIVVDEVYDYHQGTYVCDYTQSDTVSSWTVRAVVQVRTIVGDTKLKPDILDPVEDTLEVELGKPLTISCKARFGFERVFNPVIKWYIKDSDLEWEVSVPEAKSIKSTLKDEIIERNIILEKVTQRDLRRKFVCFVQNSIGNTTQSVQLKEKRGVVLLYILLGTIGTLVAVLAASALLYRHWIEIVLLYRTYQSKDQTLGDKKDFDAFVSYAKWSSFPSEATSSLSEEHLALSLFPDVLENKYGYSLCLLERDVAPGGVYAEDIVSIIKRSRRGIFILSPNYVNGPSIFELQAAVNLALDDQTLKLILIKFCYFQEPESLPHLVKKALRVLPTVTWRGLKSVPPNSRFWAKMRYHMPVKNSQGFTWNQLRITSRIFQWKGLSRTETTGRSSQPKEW

[3] = target: T1, human IL-18 binding protein; assay: cell-based or functional assay; remark: listed apart in the source
[4] = target: T2, IL-18 receptors on HEK-Blue IL-18 …; assay: cell-based or functional assay; remark: listed apart in the source
[5] = target: T3, IL-18 receptor alpha (UniProt Q13478 19-329, limits assumed); assay: Octet BLI
T3 construct: also called IL-18 Rα; IL-18Rα
T3 sequence (looked up): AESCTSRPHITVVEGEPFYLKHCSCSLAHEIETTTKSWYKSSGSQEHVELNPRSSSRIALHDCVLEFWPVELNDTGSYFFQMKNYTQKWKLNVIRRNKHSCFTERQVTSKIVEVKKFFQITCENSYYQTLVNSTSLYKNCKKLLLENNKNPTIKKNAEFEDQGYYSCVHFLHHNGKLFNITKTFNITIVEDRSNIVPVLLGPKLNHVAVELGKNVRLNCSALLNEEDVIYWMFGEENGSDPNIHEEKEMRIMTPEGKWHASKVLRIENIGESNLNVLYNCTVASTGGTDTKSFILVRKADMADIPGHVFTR
Protocol: (§1) Octet 96red instrument was used to determine affinities of IL18 proteins to BP or receptors. 5-10 ug/ml analyte proteins were used for loading on Sartorius tips (AHC or SA). […] 120-180 s loading, 200 s association and 800 s dissociation were used for kinetics. 3-7 data points were used to calculate affinities.
Additional IL-18 variants were generated and tested based on the results above with G3 variants, E6 variants, K53 variants, and M60 variants. The new variants were first tested for binding to IL-18Rα and IL-18BP by octet, as described above.

[6] = target: T4, IL-18 receptor (IL-18Rα and IL-18Rβ) (UniProt Q13478 19-541; O95256 20-599, limits assumed); assay: cell-based or functional assay
T4 sequence (looked up) 1: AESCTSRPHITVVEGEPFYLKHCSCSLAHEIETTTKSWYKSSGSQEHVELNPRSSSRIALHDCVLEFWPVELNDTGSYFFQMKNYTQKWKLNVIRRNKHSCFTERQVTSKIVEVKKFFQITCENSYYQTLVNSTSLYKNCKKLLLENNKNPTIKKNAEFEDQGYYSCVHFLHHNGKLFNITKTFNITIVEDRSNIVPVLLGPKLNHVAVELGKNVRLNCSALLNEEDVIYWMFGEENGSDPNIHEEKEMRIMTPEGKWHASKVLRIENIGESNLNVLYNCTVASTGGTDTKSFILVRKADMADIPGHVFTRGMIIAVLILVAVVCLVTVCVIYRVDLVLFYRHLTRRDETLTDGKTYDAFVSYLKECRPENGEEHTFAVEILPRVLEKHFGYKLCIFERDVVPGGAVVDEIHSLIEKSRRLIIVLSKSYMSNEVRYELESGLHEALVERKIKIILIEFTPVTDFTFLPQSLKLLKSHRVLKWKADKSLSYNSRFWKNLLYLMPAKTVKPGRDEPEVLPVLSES
T4 sequence (looked up) 2: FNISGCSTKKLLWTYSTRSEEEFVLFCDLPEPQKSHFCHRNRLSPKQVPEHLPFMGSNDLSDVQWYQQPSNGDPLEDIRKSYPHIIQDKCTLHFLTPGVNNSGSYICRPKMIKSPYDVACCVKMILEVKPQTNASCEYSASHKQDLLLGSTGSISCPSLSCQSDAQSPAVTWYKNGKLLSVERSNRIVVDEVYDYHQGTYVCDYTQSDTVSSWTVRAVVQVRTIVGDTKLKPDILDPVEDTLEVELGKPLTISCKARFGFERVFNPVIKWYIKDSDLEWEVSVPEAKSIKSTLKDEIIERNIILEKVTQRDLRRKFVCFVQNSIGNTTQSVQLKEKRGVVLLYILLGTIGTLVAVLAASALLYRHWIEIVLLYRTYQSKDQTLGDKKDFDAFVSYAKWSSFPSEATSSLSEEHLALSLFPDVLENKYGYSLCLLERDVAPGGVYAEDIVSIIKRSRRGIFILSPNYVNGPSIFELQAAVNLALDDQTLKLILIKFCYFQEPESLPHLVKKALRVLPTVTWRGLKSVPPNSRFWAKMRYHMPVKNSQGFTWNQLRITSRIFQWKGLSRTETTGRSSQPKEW

[7] = target: T5, IL-18 receptors on HEK-Blue IL-18 reporter cells (InvivoGen) (UniProt Q13478 19-541; O95256 20-599); assay: cell-based or functional assay
T5 sequence (looked up) 1: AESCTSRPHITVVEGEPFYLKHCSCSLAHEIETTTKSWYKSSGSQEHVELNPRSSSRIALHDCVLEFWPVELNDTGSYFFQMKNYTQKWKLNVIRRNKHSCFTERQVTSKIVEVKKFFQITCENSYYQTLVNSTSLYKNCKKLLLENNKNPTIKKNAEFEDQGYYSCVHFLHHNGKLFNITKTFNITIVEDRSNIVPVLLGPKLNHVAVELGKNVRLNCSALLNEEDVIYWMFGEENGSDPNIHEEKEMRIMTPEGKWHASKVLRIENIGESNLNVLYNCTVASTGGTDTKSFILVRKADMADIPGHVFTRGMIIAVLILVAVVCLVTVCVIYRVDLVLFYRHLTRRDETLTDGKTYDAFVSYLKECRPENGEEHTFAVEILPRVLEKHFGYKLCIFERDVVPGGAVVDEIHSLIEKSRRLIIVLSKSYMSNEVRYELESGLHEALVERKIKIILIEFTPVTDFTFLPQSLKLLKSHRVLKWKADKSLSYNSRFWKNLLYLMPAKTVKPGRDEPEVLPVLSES
T5 sequence (looked up) 2: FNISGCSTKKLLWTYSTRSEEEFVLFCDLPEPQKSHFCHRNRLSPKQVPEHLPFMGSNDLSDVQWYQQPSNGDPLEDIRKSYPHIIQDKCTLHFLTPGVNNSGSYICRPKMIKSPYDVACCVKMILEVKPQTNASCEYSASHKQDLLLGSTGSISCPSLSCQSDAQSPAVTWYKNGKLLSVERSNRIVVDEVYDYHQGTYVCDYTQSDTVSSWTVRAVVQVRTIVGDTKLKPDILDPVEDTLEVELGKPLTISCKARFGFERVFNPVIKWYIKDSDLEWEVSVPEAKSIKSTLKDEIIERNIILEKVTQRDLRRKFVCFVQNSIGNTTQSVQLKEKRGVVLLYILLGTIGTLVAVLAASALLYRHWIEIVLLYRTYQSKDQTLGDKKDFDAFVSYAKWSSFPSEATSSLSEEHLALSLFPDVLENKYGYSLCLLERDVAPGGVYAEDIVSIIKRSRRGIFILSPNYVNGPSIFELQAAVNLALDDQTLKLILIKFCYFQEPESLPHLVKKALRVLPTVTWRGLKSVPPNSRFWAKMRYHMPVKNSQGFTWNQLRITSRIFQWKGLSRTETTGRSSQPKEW

[8] = target: T6, human IL-18 binding protein (IL-18BP) (human, UniProt O95998 31-194); assay: cell-based or functional assay
T6 sequence (looked up): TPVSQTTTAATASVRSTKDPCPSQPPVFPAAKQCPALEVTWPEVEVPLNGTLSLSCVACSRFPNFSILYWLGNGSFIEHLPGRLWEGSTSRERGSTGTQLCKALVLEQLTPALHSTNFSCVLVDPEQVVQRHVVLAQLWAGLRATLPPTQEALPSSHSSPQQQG

[9] = target: T6, human IL-18 binding protein (IL-18BP); assay: Octet BLI
Protocol: as §1
Select G3/K53-substitution containing IL-18 variants and select G3/K53/N91-substitution containing TL-18 variants were tested for activity in the HEK-blue activity assay and for binding affinity to IL-18BP. As shown in the data of Table 15 and Table 16 below, each variant had similar or better activity than WT IL-18, and retained substantial activity in the presence of IL-18BP.

B1: human IL-18 variant G3V/K53A/M60K (ligand)
chain: YFVKLESKLSVIRNLNDQVLFIDQGNRPLFEDMTDSDMRDNAPRTIFIISMYADSQPRGKAVTISVKSEKISTLSSENKIISFKEMNPPDNIKDTKSDIIFFQRSVPGHDNKMQFESSSYEGYFLASEKERDLFKLILKKEDELGDRSIMFTVQNED
HEK-blue EC50 (pM) + 1000 nM BP [1]: 0.075 pM | HEK-blue EC50 (pM) - BP [2]: 0.086 pM | HEK-blue EC50 (pM) + 300 nM BP [3]: 0.063 pM | HEK-blue EC50 (pM) - BP [4]: 0.041 pM | Kd [5]: 488 nM

B2: human IL-18 variant G3V/E6K/K53S/M60K (ligand)
chain: YFVKLKSKLSVIRNLNDQVLFIDQGNRPLFEDMTDSDMRDNAPRTIFIISMYSDSQPRGKAVTISVKSEKISTLSSENKIISFKEMNPPDNIKDTKSDIIFFQRSVPGHDNKMQFESSSYEGYFLASEKERDLFKLILKKEDELGDRSIMFTVQNED
HEK-blue EC50 (pM) + 1000 nM BP [1]: 0.095 pM | HEK-blue EC50 (pM) - BP [2]: 0.089 pM | HEK-blue EC50 (pM) + 300 nM BP [3]: 0.098 pM | HEK-blue EC50 (pM) - BP [4]: 0.079 pM | Kd [5]: 324 nM

B3: IL-18 variant G3H, N91V, K53S (ligand)
chain: YFHKLESKLSVIRNLNDQVLFIDQGNRPLFEDMTDSDMRDNAPRTIFIISMYSDSQPRGMAVTISVKSEKISTLSSENKIISFKEMNPPDVIKDTKSDIIFFQRSVPGHDNKMQFESSSYEGYFLASEKERDLFKLILKKEDELGDRSIMFTVQNED
notes: also called G3H/K53S/N91V
EC50 pM, IFN gamma expression in PBMCs [6]: 222 pM | HEK-Blue Ec50 (pM), -IL-18BP [7]: 0.94 pM | HEK-Blue Ec50 (pM), +IL-18BP (50 nM) [8]: 2.51 pM | Kd [9]: 8.6 nM | koff [9]: 0.0031 s⁻¹ | kon [9]: 359000 M⁻¹ s⁻¹
